Measurements: the DeepSol protein solubility set

Assay: soluble on expression in E. coli; label from the status in PepcDB or PDB records

Soluble on expression in E. coli, not soluble:
MGSDKIHHHHHHMARKISDYHLKKREETQKKFIDLLAQNNYIHISGDMVNSKTKVKVRCRHNHTWQVNYEHFKKGTRCPECRIIEGSLKKRLNISTVKSRYALKGYEILSTYKNCHSKLKAKCPEGHIWEHLPSNFFKGEECFQCKGAKKYTVECAQAAFSDRGFIPLFDTYHHNKENLPFLCKEHIDLGVQYAPLHNMVRGLANCRKCYLLLFTGENSSRWKGGISSLNKTLREAVYEVWTKPSLEKYSFKCAITNSTKDLHVHHYKKNFSEIVKEALSNLSFEL, MGSDKIHHHHHHMARTNPHRPFVPDPEQAALAPGVSGNDINGLGETAFRRPRMVYWAPDPDDIPHGSLQRYFYRQSAKEPDFASRRAARQAVLDAPLPLLADTVVIRDPADWTAALTQFVDSGLCDLTGVAEMNPDWVFEGHEIPQSRVIMIGVAHDYNVIATAPKPSAGLEVMTQYTRAAQAAKTIAGWLRQQGWQAEPLTGPMTGALAMIPPALACGFGELGKHGSIINPDLGASFRLSAVLSDAPFAPTPAQDHGIDGFCQNCHICQDACPPEALFAQKQTVRGARKWYVDFDKCLPFFNQTHGCAICIAECPWSRPGIGPNLAAKLARKRNRDATG, MGSDKIHHHHHHMARTVVVGLGRSGIGAARLLQAEGHQVTVLERSIEPHLQSLAADLRLQGIAVELGKPLELNSFIPLLDQLDAVVISPGIAWDHPTLTALRQRGIDIDGEMAVAWRSLSHLPWIAITGTNGKTTVTHLLNHVLESNGLRAPMGGNVGHAAAEVALKWRQPNAQRPDWLVMELSSYQIEAAPEIAPRMGIWTNLTPDHLERHGTLDAYRTIKRGLLERSEIRIFNGDDPDLRSQRSSWDKGLWVSSEGPGTANHRADFWIDAEGLVREPQGALFAASALAMPGQHNLQNLLLVTAAARQTGLPAKAIEASLRSFPGVPHRLEQLGHIQQMSVYNDSKATNYDAACVGLKAVPPPAVVLAGGQTKQGDASGWLKQLDQNACAVILFGAGASELQELIKTSGFSGELHCCSNLNAAVTLAIPLGVERQAACLLLSPACASFDQYQDFEARGEHFRSLISSHLTA, MGSDKIHHHHHHMARYYMPAEGDSYLKKVWTWATTGKRFRPSFPRTIEFQTLSTCNAKCIFCPHKHSPKDIPHGRMDDALFRKIVDECARHFVGRVSPYLTNEPLMDKRMPEMLRYIHDKMPFFTKSKINTNAALLTEETGEALIRAGLTHLWISVNGYSPETYRTSMDLDLDRTLTNIDTFLATKRRLGAKNPKVIVTTVETNIVKPELDYARKYWKERDIVFKVHAMDNRAGADSLTFKASKPKLKRNCDLFLKQAYIVENGDMIICCHDWKQTVKVGNVAETSIKEVWNSRYFTDLIRDYVRGDYSRLGICAKCSS, MGSDKIHHHHHHMASLTFLGAAQEVTGSCYLLETLDGVKVLLECGMRQGRREADNGNRAPFPFDPASIDAVVISHAHLDHSGLLPRLAAEGFKGPIFATEATCELLELMLLDSAHIQEKDAEWENRWRNRIGKPSIKPLYTQADTERALKLRRPISLGSTVAVARGVRVTFHNAGHILGSSIVEVQFHDQVQPRRLVFSGDLGNTCSPLMRAPSPLSRADVVMLESTYGDRDHRDSNDTLEELAAILDQAHRDGGNVLIPSFAVGRTQDLLYYLGRFYQEGRLPQQAVFLDSPMAARANGIYLRHSNEFDDRDREYIRGTGTTRLEEWLPVLRVTRSADESMAINRIKSGAVIIAGSGMCTGGRIVHHFKHNLWRPECHVVFPGFQARGTLGRNIVDGASAVRVFHQRIAVKAQIHTLGGFSAHAGQSQLLDWVGHFAHRPALYLIHGEREKMEALQSAIRERLDWDAEIPEPGERIEI, MGSDKIHHHHHHMASSGTEHDAMRARLVDVAQAIVEERGGAGLTLSELAARAGISQANLSRYFETREDLMEAIADYWFHPMVEIMEDVLASDLPPRRKMYEFFARRFVVMRRKWEADPVKLQTYIEVGNDYFEQVRSYIDLADHYLGEIIGEAMSDGAFSGLEVDETISLVNQMCAPYCALNTMTTFMERLSEDKLARIVDAVFDGLSAQDRGARSLTGLRAA, MGSDKIHHHHHHMASTTPEGLEIRPRHLDFDLPDPMPRHWHSGDAFKTHMFNAMSVLFPDGERFFIDSVRHYRERVEDPALKQQIRGFIGQEGHHSREHLVYSDRLRALGYDIDRLEGGAKRRIRFAQQKLHPSRQLAATAALEHLTAIMADGLLSNPRWLEGADPTMARLWRWHALEETEHKAVAYDVFMLVNGKARLRRRAMVQGTFFFALDTTKGLVHMLKRDGLLWNFKVWRDGIKWLWGKDGVFRSLVGVYLDFYKKDFHPWQHNNLHLIEQYRDQFEPEPKAA, MGSDKIHHHHHHMATALYTANDFILISLPQNAQPVTAPGSKTDSWFNETLIGGRAFVSDFKIPEFKIGSLDTLIVESEELSKVDNQIGASIGKIIEILQGLNETSTNAYRTLPINNMPVPEYLENFQWQTRKFKLDKSIKDLITLISNESSQLDADVRATYANYNSAKTNLAAAERKKTGDLSVRSLHDIVKPEDFVLNSEHLTTVLVAVPKSLKSDFEKSYETLSKNVVPASASVIAEDAEYVLFNVHLFKKNVQEFTTAAREKKFIPREFNYSEELIDQLKKEHDSAASLEQSLRVQLVRLAKTAYVDVFINWFHIKALRVYVESVLRYGLPPHFNIKIIAVPPKNLSKCKSELIDAFGFLGGNAFMKDKKGKINKQDTSLHQYASLVDTEYEPFVMYIINL, MGSDKIHHHHHHMATRATQISTLVEEIANNPNLKEDLKILPSNYTFEVPKTIWKIRSTESKYVALQFPEGLIMYACVIADILEKYTGCDTVIMGDVTYGACCVDDYTAKSMGCDLLVHYGHSCLVPIQNTDGIAMLYVFVNIHINLSHLIDCVKENFQGKRLVVVSTVQFIPSLQTLRTTFNKDDSSIRIDIPQCKPLSPGEVLGCTSPRLDASKYDAIVYLGDGRFHLESIMIHNPEIEAFQYDPYSRKLTREFYDHDLMRKNRIGSIEIARKCTTFGLIQGTLGRQGNLKVVEELEAQLERKGKKFLRVLLSEIFPEKLAMFPEVDCWVQVACPRLSIDWGTQFPKPLLYPFELAVALDNISVPSDHWPMDYYSNDSLGPWTNNNEANRPKREKRKPHIVVRTEAS, MGSDKIHHHHHHMAVVFPSKEWMEELYKKVNADEEYRRVAANWEGDYLCVVELDEEALRDFQNPKVLRGFLGMLDSIPKEKRERFRGTPSEKLLEALGLSLDSDLSDANVEEIAKKIAENPDKILEAAKGASLNIWMDFWHGDFRNIEVAAPGEHEDAKFKLIGPYAVFKQLVMGKADAITLVVSGKLKLQGDMGYMMRNMATVKKFTDLMASIPIET, MGSDKIHHHHHHMAYGGRITLNVRIALVGEELEIRENVNIEIEEGIITHIGNGFSSEGITFKNGILIPGIVNAHVHSADFICQEMGYNMPISKVVGDPHSVKYECFAKNTKESIMNSIERFVLRARELGSNVMIDFREQGLEGSLISSTIKKKMATNGVKYYFLGRLEEDEFKDIRNLNSLYKIADGYGLSSAFSTSEIELIKHVFNNKIRSVHVSETIKHWLRDDLEYVMKRYEPNLIIHGTYLSEEEIDIMRYRKASIVYCPRSNLWFSVGIPKVINGLKSGVNLLIGTDNGGVLDPDMWKEMETLLLISRVQDPLSDHSLQILKASTINAYKFLGIRGWIEEGNPIEAGLLVLEGDSTGILNSNNKYIGIIKRGNKIIYNLGAIQKII, MGSDKIHHHHHHMAYIIPSDISAAALAGAHGPELETLAGLKTALSSDYTVYHGVHWSYDYRGQIRFGEADFVVVNQAGEMVVIEQKNGRLEDTAEGLIKVYGNTRKDVQSQVRRSVENIREKMRAASGSPPPSIDYLIYCPDHRLVRLNAVGLDVSRIVSGATPADLAGRIRQILPPGSKGGATENVHAFLRDAFQVVADVHAHVKAHERSYTRLIGGIADIVDSIEMAPLRLRLRGAPGSGKTVVAHRLYERALARGRRPLMVCFNHPLAERLAASVSPGGRVTTWHGLCVNFLAERGLKPNFEDAARNRSFWPDLAELIIAEPVPDAWRFDTLIVDEGQDFEPGWIDILHLFLTDAADIVWLEDPAQELRGIGRNELPGFVGLSVRTNYRTPQSIARFVKRALGADFVAANDLPGLGVGVSTYGLEDEQAVHLSRIVPALVRQGFAPDQIVIVTLKGATTSVLSQMTRIGTHEVSHFTGAYGDDGRQVRSRGLIRFESVQRFKGQQAPAVIVVDVNPASDPNKAERHLRQLFSAFTRATIRLEILAQKDNPMTARLLGSL, MGSDKIHHHHHHMAYRKQLTRLKAPYLKRILLDPGRVEDWEKYPWNLPLFRGREFELEFTAPITIIVGENGTGKSTLLEAIGALAGYDEAGGGKGYMPVDHSRAIDKSGAALADNFRCHWLPKVTAGWFFRAESFYSVARYLDEAARESGATPPDFLSWSHGEGFIRFFEERCRRQGIYILDEPESALSPSRQIELLKMLRRMDQSGTAQVIMATHSPLLMACPGARLFRISRFGLEPADFRDTDHFRMLRDFSNDPDGFLAEALYEDEA, MGSDKIHHHHHHMCPLMAENHEVIEEGNSSELPLSAEDAKKLTELAENVLQGWDVQAEKIDVIQGNQMALVWKVHTDSGAVCLKRIHRPEKKALFSIFAQDYLAKKGMNVPGILPNKKGSLYSKHGSFLFVVYDWIEGRPFELTVKQDLEFIMKGLADFHTASVGYQPPNGVPIFTKLGRWPNHYTKRCKQMETWKLMAEAEAAAPFSQLYLQEIDGFIEDGLRIKDRLLQSTYVPWTEQLKKSPNLCHQDYGTGNTLLGENEQIWVIDLDTVSFDLPIRDLRKMIIPLLDTTGVWDDETFNVMLNAYESRAPLTEEQKQVMFIDMLFPYELYDVIREKYVRKSALPKEELESAFEYERIKANALRQLI, MGSDKIHHHHHHMDAILECCAGLDVHQETVVACILFGSLESKPKKTIRTFSTTTSDLLALTDWLEEEKCSHVAMESTGVYWKPVWNILEAGSFQLSLANAQRIKNLPGRKTDVKDAEWIAQLLRSGLIQGSFVPPAEIRDLRDLTRYRKKLLQDATQEKNRIHKILQDANIKITTYISDIFGVSGRNIMESLMDGEVITVEKLNQMVKGKVKSKIPGLADALNHRLRSHHRDMIRYSWSHLKFLEQSLINVEQKISECMAPYQQEVELLTSIPGINQTSSAIMIAELGADMSVFPTDSQLSSWAGVSPGNNESAGKKKEGVFPQETKR, MGSDKIHHHHHHMDEKGLADCHTPTNGGNQKIKFVNEPNLYRIIFRSNKPEAKQFQDWVFNEVLPTIRKTGKYEAPKPVEKRNYLNNSDMNNIKRLIWTCADHFGHKGSFNQAIWACLRDVTGVPSPAKFEVEHLPVLAEEFKRILNIVQPFLDMQYECQTLLIKRVIRGRADHTVLQALLDNMRNAANQSDNQFKEALQKQLPAMFNQECLNLINRRPNHYDHYEYNERLI, MGSDKIHHHHHHMDEMKVIEIIKKTLKFSNENIVKGIDDDCAIIKIDENFYLVATTDMMVKKAHIPSILSPYEIGGRILTANVSDIASMGAKPLAFLVSISLSKEEANEKFIKELYSGLDDFSKLYDCPVVGGDTNRGDELILSGTAFGITDNPIYRRGKVGDDICVTNDLGRVYCALTLYYMLKENKISYKEFERLCQKYPKIIEKLRKPIARIKEGLLMNKLINGCCDISDGLGKEITYFKNFEIYSDRIFKLIPEDVIEFCDAFNLNPIKVALNSGEEFELLFTTSKFNKVKDSLKGYSKIYKIGKIIEDGQFIDGEEFYGGGYIHKW, MGSDKIHHHHHHMDFIEVYPNAIPDDLCDRLILAFEKHSGVVDGQTGNGVDLEKKISRDLTLDNFTDLQPLKNELLSYTLKGTADYFSQYAMALMGAVAVSVSDEQGQAVTLTPSNFERLGKPRAEALVKYLYRSGSINIQKYQKNKGGYPHWHSEQFPQLSHNEALHRVVLYMFYLNDVEEGGETEFYYQQRKISPKKGTMVIAPAGFTHSHRGNMPISNDKYIATSWVMFNRAEQLYAVYA
